Results on two substances are retold here after paper PMC7321126, “Recombinant Expression and Stapling of a Novel Long-Acting GLP-1R Peptide Agonist” (Molecules, 2020).

For test [1], the target named is human GLP-1R on HEK293-GLP-1R-CRE cells (human) (UniProt P43220).
The target of test [2] is GLP-1R on cAMP Hunter CHO cells (UniProt P43220).
GLP-1R on cAMP Hunter CHO cells, sequence (P43220 24-463): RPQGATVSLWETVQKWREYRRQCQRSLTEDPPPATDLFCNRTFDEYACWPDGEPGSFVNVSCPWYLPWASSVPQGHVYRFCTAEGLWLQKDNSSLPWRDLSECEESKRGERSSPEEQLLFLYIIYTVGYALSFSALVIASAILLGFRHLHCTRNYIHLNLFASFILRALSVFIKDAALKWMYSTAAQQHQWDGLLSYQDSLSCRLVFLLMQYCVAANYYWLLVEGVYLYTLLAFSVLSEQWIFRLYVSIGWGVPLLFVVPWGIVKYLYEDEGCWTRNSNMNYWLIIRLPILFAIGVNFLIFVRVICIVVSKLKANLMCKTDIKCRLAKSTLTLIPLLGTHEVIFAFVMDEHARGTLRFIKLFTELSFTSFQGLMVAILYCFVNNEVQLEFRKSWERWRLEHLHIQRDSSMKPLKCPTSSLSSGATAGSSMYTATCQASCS

human GLP-1R on HEK293-GLP-1R-CRE cells (human), sequence (P43220 24-463): as above

As to “exenatide (Ex-4) (from UniProt P26349 48-87) (peptide)”, the EC50, CRE luciferase reporter assay in HEK293-GLP-1R-CRE cells in test [1] stood at 37 pM. Besides, the EC50, intracellular cAMP (HTRF) assay in cAMP Hunter CHO cells expressing GLP-1R in test [2] worked out at 111 pM.

Semaglutide (peptide): the EC50, CRE luciferase reporter assay in HEK293-GLP-1R-CRE cells in test [1] is 24 pM. In test [2], this substance returned an EC50, intracellular cAMP (HTRF) assay in cAMP Hunter CHO cells expressing GLP-1R of 210 pM.
